Experimental data published in US8697651B2, “Amyloid β fibrillogenesis-inhibiting peptide” (Kagoshima University, priority 2006, dated 2014).
No end group written: not given here. *: point of attachment. Biotin = O=C1N[C@H]2[C@H](CS[C@H]2CCCCC(=O)*)N1

Key:
Aβ1-42 peptide = target: T1, Aβ1-42 peptide (Homo sapiens, UniProt P05067); assay: Experiment of inhibition of amyloid β (Aβ1-42) fibrillogenesis, thioflavine T fluorescence; type: biochemical; settings: peptide 1.65, 16.5, 33 nM added to 40 μM Aβ1-42 in 20 mM phosphate buffer pH 7.0; 0, 6, 24 hours; thioflavine T fluorescence 482 nm (FIG. 8)
T1 construct: the Aβ1-42 peptide diluted to 40 μM using 20 mM phosphate buffer
T1 sequence (P05067 672-713 limits assumed): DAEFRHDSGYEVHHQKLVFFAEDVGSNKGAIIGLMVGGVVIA
Method: Examples of a method for examining whether or not the obtained peptide has an activity of inhibiting amyloid β fibrillogenesis include the thioflavine T (ThT) method (H. Levine, III, Protein Science […]: 404-410 (1993)).
The synthesized peptide (TAT-B6-L1, B6-L1-TAT, TAT-B7-C15, or TAT-B7-S15) was added at varying concentrations (1.65 nM, 16.5 nM, and 33 nM) to the Aβ1-42 peptide diluted to 40 μM using 20 mM phosphate buffer, pH 7.0. At 0, 6, and 24 hours later, 10 μl of a sample was collected. After addition of 90 μl of 11 μM thioflavine T (Sigma)/phosphate buffer, fluorescence intensity at 482 nm generated by excitation light at 450 nm was measured using a multilabel plate counter Wallac 1420 ARVO sx (Perkin-Elmer; Wellesley, Mass.).
Results of measuring an activity of inhibiting Aβ1-42 fibrillogenesis by fusion peptides of TAT and B6-L1, B7-C15, or B7-S15 are shown in FIG. 8. The experiment of inhibition of fibrillogenesis was conducted according to the procedures described in the experiment of inhibition of fibrillogenesis above.

B6 scFv = assay: ELISA: binding of B6 scFv to plate-coated synthesized TAT fusion peptide; design: species or system human; settings: peptide coated 200 ng/well; B6 scFv at varying concentrations (FIG. 7)
Sequence of B6 scFv (as listed by the source): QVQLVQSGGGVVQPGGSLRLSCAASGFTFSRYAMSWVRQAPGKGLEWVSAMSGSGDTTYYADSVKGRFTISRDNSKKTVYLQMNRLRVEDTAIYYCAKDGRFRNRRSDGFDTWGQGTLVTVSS
Sequence of B6 scFv (as listed by the source): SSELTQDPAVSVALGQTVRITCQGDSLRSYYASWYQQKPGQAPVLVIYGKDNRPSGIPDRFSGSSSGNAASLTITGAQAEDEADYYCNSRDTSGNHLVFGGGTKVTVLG
Description: The B6-L1, B7-C15, and B7-S15 sequences having the TAT sequence fused at the amino terminus are referred to as TAT-B6-L1, TAT-B7-C15, and TAT-B7-S15, respectively. The B6-L1 sequence having the TAT sequence fused at the carboxyl terminus is referred to as B6-L1-TAT. The TAT sequence is a peptide sequence having the function of passing through the blood-brain barrier (P. Jarver and Ulo Langel, The use of cell-penetrating peptides as a tool for gene regulation, DDT, 9: 395-402, 2004). These peptides were biotinylated at their amino termini. Binding of the peptides was quantified using avidin labeled with an enzyme.
(5) The fusion peptide of TAT and B6-L1 was recognized by B6 scFv (FIG. 7). An ELISA plate was coated with the synthesized peptide TAT-B6-L1 or B6-L1-TAT under conditions of 200 ng/well. After addition of B6 scFv at varying concentrations, its binding activity was studied. A control peptide used was an unrelated peptide (GSGGGSCGYWRSEWGLCG (SEQ ID NO: 34)). […] (6) Activity of Inhibiting Aβ1-42 Fibrillogenesis by Fusion Peptide of TAT and B6-L1, B7-C15, or B7-S15

[1] = target: T2, Aβ oligomer or Aβ fibers (Aβ1-42) (Homo sapiens, UniProt P05067); assay: Experiment of precipitation of Aβ conformers (Aβ oligomer and Aβ fibers) by biotinylated peptide with streptavidin-magnet beads, Western blot; type: binding; settings: Aβ1-42 40 μM, 1.5 hours after dissolution, peptide 1:1, supernatant vs pellet (FIG. 9)
T2 construct: the Aβ1-42 peptide diluted to 40 μM using 20 mM phosphate buffer
T2 sequence (P05067 672-713 limits assumed): as the sequence (P05067 672-713 limits assumed) above
Method: Aβ1-42 was dissolved at a concentration of 40 μM in 20 mM phosphate buffer, pH 7.0. At 1.5 hours later, the solution was reacted at 37° C. for 1 hour by the addition of the TAT-B6-L1 or TAT-B7-C15 peptide adjusted to 40 μM at a ratio of 1:1 by liquid volume (final concentration: Aβ [20 μM]/synthesized peptide [20 μM]). After reaction, an aliquot thereof was sampled as a sample before immunoprecipitation (“Before precipitation”), and the remaining sample was reacted with M-280 streptavidin-magnet beads (Dynal Biotech, Oslo, Norway) adjusted to 20 μg/μl on ice for 1 hour at a ratio of 1:1 by liquid volume (final concentration: Aβ [10 μM]/synthesized peptide [10 μM]/beads [10 μg/μl]). After reaction, the beads were precipitated using a magnet to obtain “Supernatant”. To the precipitated beads, PBS was added in a liquid volume equal to the collected supernatant to obtain “Pellet”. Each obtained sample was electrophoresed and subjected to Western blot analysis using anti-Aβ antibodies.
Aβ1-42 was dissolved at a concentration of 40 μM in 20 mM phosphate buffer, pH 7.0. At 1.5 hours later, the biotinylated TAT-B6-L1 or TAT-B7-C15 peptide was added thereto, and the conjugates were precipitated using streptavidin-magnet beads. Bands derived from Aβ oligomer, Aβ fibers, etc., could be confirmed before precipitation. Aβ oligomer or Aβ fibers were not confirmed in the supernatant from precipitation using the TAT-B6-L1 or TAT-B7-C15 peptide but could be confirmed in the pellet.

Row | Substance | activity of inhibiting Aβ1-42 fibrillogenesis (Aβ1-42 peptide) | binding of B6 scFv to the coated peptide (B6 scFv) | binding/precipitation of Aβ oligomer or Aβ fibers by the peptide [1]
1 | B6-L1-TAT: B6-L1 sequence having the TAT sequence fused at the carboxyl terminus; SEQ ID NO: 25 (Biotin-GMLDIFAPIRHVYGRKKRRQRRR) | demonstrated to have the activity of inhibiting fibrillogenesis | Binding reaction dependent on the amount of B6 scFv was confirmed | 
2 | TAT-B7-S15: B7-S15 sequence having the TAT sequence fused at the amino terminus; SEQ ID NO: 27 (Biotin-YGRKKRRQRRRSYGTKPWMSG) | demonstrated to have the activity of inhibiting fibrillogenesis |  | 
3 | TAT-B6-L1: B6-L1 sequence having the TAT sequence fused at the amino terminus; SEQ ID NO: 24 (Biotin-YGRKKRRQRRRGMLDIFAPIRHV) | demonstrated to have the activity of inhibiting fibrillogenesis | Binding reaction dependent on the amount of B6 scFv was confirmed | Aβ oligomer or Aβ fibers formed on 1.5 hours after dissolution of Aβ1-42 bind to the TAT-B6-L1 or TAT-B7-C15 peptide
4 | TAT-B7-C15: B7-C15 sequence (glycine added to carboxyl terminus) having the TAT sequence fused at the amino terminus; SEQ ID NO: 26 (Biotin-YGRKKRRQRRRCYGTKPWMCG; cysteine pairing not given here) | demonstrated to have the activity of inhibiting fibrillogenesis |  | Aβ oligomer or Aβ fibers formed on 1.5 hours after dissolution of Aβ1-42 bind to the TAT-B6-L1 or TAT-B7-C15 peptide
5 | GSGGGSCGYWRSEWGLCG [control peptide, reference compound] | exhibited no inhibiting activity |  | no confirmed precipitation reaction
